The RNAGym collection of RNA variant scans (doi:10.7554/elife.80360)

B1: CPEB3 Ribozyme (parent)
chain: GGGGGCCACAGCAGAAGCGUUCACGUCGCGGCCCCUGUCAGAUUCUGGUGAAUCUGCGAAUUCUGCUGU

Variants of: B1
Assay: self-cleavage, relative activity (ratio to wild type); higher = more cleavage; co-transcriptional
With C32A G50U the self-cleavage was 0.707.
In the case of C32A G56C, the self-cleavage is reported as 0.478.
For C32A G58U, the self-cleavage was 0.914.
For C32A G65C, the self-cleavage was 0.459.
Work on C32A G65U yielded a self-cleavage of 0.418.
C32A G68C gave a self-cleavage of 0.913.
Variant C32A U36G has a self-cleavage of 0.263.
For C32A U38A, the self-cleavage was 0.791.
C32A U43G gave a self-cleavage of 0.374.
Variant C32A U44C has a self-cleavage of 0.482.
Work on C32A U49G yielded a self-cleavage of 0.626.
Work on C32A U53A yielded a self-cleavage of 0.501.
With C32A U62A the self-cleavage was 0.281.
For C32A U62G, the self-cleavage was 0.324.
C32A U69A gave a self-cleavage of 0.965.
Variant C32A U69G has a self-cleavage of 0.983.
For C32G A42C, the self-cleavage was 0.343.
In the case of C32G A42G, the self-cleavage is reported as 0.569.
C32G A42U gave a self-cleavage of 0.44.
Work on C32G A51G yielded a self-cleavage of 0.48.
In the case of C32G A52G, the self-cleavage is reported as 0.364.
C32G A52U gave a self-cleavage of 0.48.
Variant C32G A59C has a self-cleavage of 0.243.
For C32G A60C, the self-cleavage was 0.194.
Variant C32G A60U has a self-cleavage of 0.19.
Work on C32G C34A yielded a self-cleavage of 0.303.
C32G C34G gave a self-cleavage of 0.212.
For C32G C35U, the self-cleavage was 0.377.
With C32G C39A the self-cleavage was 0.282.
Work on C32G C39G yielded a self-cleavage of 0.389.
In the case of C32G C45A, the self-cleavage is reported as 0.381.
Work on C32G C45U yielded a self-cleavage of 0.573.
With C32G C54U the self-cleavage was 0.594.
With C32G C57A the self-cleavage was 0.252.
C32G C57U showed a self-cleavage of 0.234.
Variant C32G C63G has a self-cleavage of 0.233.
With C32G C63U the self-cleavage was 0.358.
Work on C32G C66A yielded a self-cleavage of 0.256.
In the case of C32G C66U, the self-cleavage is reported as 0.394.
For C32G G41U, the self-cleavage was 0.328.
C32G G47U showed a self-cleavage of 0.514.
In the case of C32G G48C, the self-cleavage is reported as 0.604.
C32G G50A gave a self-cleavage of 0.554.
With C32G G56A the self-cleavage was 0.354.
For C32G G56C, the self-cleavage was 0.218.
Variant C32G G56U has a self-cleavage of 0.308.
For C32G G58C, the self-cleavage was 0.478.
C32G G58U gave a self-cleavage of 0.622.
In the case of C32G G65U, the self-cleavage is reported as 0.267.
Variant C32G G68U has a self-cleavage of 0.815.
C32G U36A gave a self-cleavage of 0.255.
With C32G U36C the self-cleavage was 0.215.
Variant C32G U44C has a self-cleavage of 0.452.
With C32G U46C the self-cleavage was 0.594.
C32G U49G showed a self-cleavage of 0.371.
C32G U53C gave a self-cleavage of 0.217.
For C32G U53G, the self-cleavage was 0.382.
In the case of C32G U55A, the self-cleavage is reported as 0.268.
In the case of C32G U61C, the self-cleavage is reported as 0.285.
C32G U61G showed a self-cleavage of 0.342.
In the case of C32G U64C, the self-cleavage is reported as 0.311.
In the case of C32G U69A, the self-cleavage is reported as 0.709.
With C32G U69G the self-cleavage was 0.775.
C32U A40C gave a self-cleavage of 0.734.
Variant C32U A40G has a self-cleavage of 0.95.
For C32U A40U, the self-cleavage was 0.871.
Work on C32U A51G yielded a self-cleavage of 1.
Variant C32U A51U has a self-cleavage of 0.982.
Work on C32U A52C yielded a self-cleavage of 0.913.
C32U A60C showed a self-cleavage of 0.363.
Work on C32U A60U yielded a self-cleavage of 0.478.
Work on C32U C33G yielded a self-cleavage of 0.374.
C32U C34G showed a self-cleavage of 0.413.
With C32U C34U the self-cleavage was 0.924.
C32U C35A showed a self-cleavage of 0.25.
For C32U C35U, the self-cleavage was 0.77.
Variant C32U C39A has a self-cleavage of 0.915.
C32U C39G gave a self-cleavage of 0.996.
In the case of C32U C54G, the self-cleavage is reported as 0.819.
Variant C32U C57A has a self-cleavage of 0.339.
Variant C32U C63G has a self-cleavage of 0.933.
Variant C32U G37A has a self-cleavage of 0.288.
Work on C32U G37C yielded a self-cleavage of 0.241.
Work on C32U G41C yielded a self-cleavage of 0.858.
Variant C32U G41U has a self-cleavage of 0.856.
C32U G47A gave a self-cleavage of 0.971.
With C32U G47C the self-cleavage was 0.97.
With C32U G48A the self-cleavage was 1.
In the case of C32U G48C, the self-cleavage is reported as 0.984.
For C32U G48U, the self-cleavage was 0.964.
For C32U G50C, the self-cleavage was 0.991.
Variant C32U G56C has a self-cleavage of 0.858.
Work on C32U G58C yielded a self-cleavage of 0.963.
With C32U G58U the self-cleavage was 0.995.
Work on C32U G65U yielded a self-cleavage of 0.806.
For C32U U36A, the self-cleavage was 0.216.
Work on C32U U36C yielded a self-cleavage of 0.973.
For C32U U38A, the self-cleavage was 0.947.
With C32U U38G the self-cleavage was 0.294.
In the case of C32U U44C, the self-cleavage is reported as 0.938.
With C32U U44G the self-cleavage was 0.941.
Variant C32U U49C has a self-cleavage of 1.
Work on C32U U49G yielded a self-cleavage of 1.01.
Work on C32U U53C yielded a self-cleavage of 0.875.
With C32U U55C the self-cleavage was 0.837.
For C32U U61A, the self-cleavage was 0.893.
Variant C32U U62A has a self-cleavage of 0.979.
In the case of C32U U62C, the self-cleavage is reported as 0.955.
With C32U U64A the self-cleavage was 0.992.
C32U U64C gave a self-cleavage of 0.899.
With C32U U67C the self-cleavage was 0.959.
With C32U U67G the self-cleavage was 1.04.
Variant C32U U69A has a self-cleavage of 1.03.
Work on C33A yielded a self-cleavage of 0.916.
With C33A A40C the self-cleavage was 0.339.
For C33A A40U, the self-cleavage was 0.375.
With C33A A42C the self-cleavage was 0.405.
Variant C33A A42G has a self-cleavage of 0.685.
With C33A A42U the self-cleavage was 0.499.
C33A A52C gave a self-cleavage of 0.582.
Work on C33A A52G yielded a self-cleavage of 0.785.
Variant C33A A52U has a self-cleavage of 0.454.
C33A A59G gave a self-cleavage of 0.738.
For C33A A59U, the self-cleavage was 0.475.
Work on C33A A60C yielded a self-cleavage of 0.346.
For C33A C34U, the self-cleavage was 0.489.
For C33A C39A, the self-cleavage was 0.286.
Variant C33A C39G has a self-cleavage of 0.436.
C33A C39U gave a self-cleavage of 0.367.
Variant C33A C45A has a self-cleavage of 0.523.
C33A C45G gave a self-cleavage of 0.665.
For C33A C57U, the self-cleavage was 0.343.
C33A C63A showed a self-cleavage of 0.611.
In the case of C33A C63U, the self-cleavage is reported as 0.851.
For C33A G37C, the self-cleavage was 0.265.
With C33A G41C the self-cleavage was 0.343.
C33A G47U showed a self-cleavage of 0.961.
With C33A G48A the self-cleavage was 0.95.
For C33A G50U, the self-cleavage was 0.893.
For C33A G56A, the self-cleavage was 0.758.
In the case of C33A G58A, the self-cleavage is reported as 0.811.
C33A G65A showed a self-cleavage of 0.786.
Work on C33A G65U yielded a self-cleavage of 0.451.
Work on C33A G68C yielded a self-cleavage of 0.967.
C33A U38A showed a self-cleavage of 0.804.
C33A U38C gave a self-cleavage of 0.72.
For C33A U43A, the self-cleavage was 0.311.
In the case of C33A U46A, the self-cleavage is reported as 0.617.
Variant C33A U46C has a self-cleavage of 0.847.
C33A U46G gave a self-cleavage of 0.737.
With C33A U61G the self-cleavage was 0.5.
With C33A U62C the self-cleavage was 0.584.
C33A U62G gave a self-cleavage of 0.559.
In the case of C33A U67C, the self-cleavage is reported as 0.928.
Variant C33A U69A has a self-cleavage of 1.
With C33G the self-cleavage was 0.668.
With C33G A40G the self-cleavage was 0.648.
C33G A42C gave a self-cleavage of 0.314.
For C33G A42G, the self-cleavage was 0.522.
With C33G A51C the self-cleavage was 0.335.
Work on C33G A52U yielded a self-cleavage of 0.444.
In the case of C33G A59G, the self-cleavage is reported as 0.516.
Variant C33G A59U has a self-cleavage of 0.362.
With C33G C34A the self-cleavage was 0.253.
C33G C34G gave a self-cleavage of 0.217.
Work on C33G C34U yielded a self-cleavage of 0.671.
With C33G C35U the self-cleavage was 0.184.
